In USRE46585 (LABORATOIRE FRANCAIS DU FRACTIONNEMENT ET DES …, dated 2017):
Like-named read-outs stand apart in the source and are kept apart here.

Key:
FcRn-p3 fusion protein [1] = molecular target: T1, FcRn-p3 fusion protein (human, UniProt P55899 24-297; P61769 21-119); assay: phage ELISA pH6 (est.)
T1 construct: baculovirus expressed; coated on ELISA wells; not shown: amino terminal part of bacteriophage p3 protein and CVDE protein

FcRn-p3 fusion protein [2] = molecular target: T1, FcRn-p3 fusion protein; assay: phage ELISA pH6
FcRn-p3 fusion protein [3] = molecular target: T1, FcRn-p3 fusion protein; assay: phage ELISA pH6; remark: listed apart in the source
FcRn-p3 fusion protein [4] = molecular target: T1, FcRn-p3 fusion protein; assay: phage ELISA pH6 (est.); remark: listed apart in the source

Row | Ratio/FWT (FcRn-p3 fusion protein [1]) | Ratio/Fc-H (FcRn-p3 fusion protein [2]) | Ratio/Fc-H (FcRn-p3 fusion protein [3]) | Ratio/Fc-WT (FcRn-p3 fusion protein [4]) | Binder
1 | 17.9 fold | 5.6 fold | 5.6 fold | 17.9 fold | C3A_13 (other, EU numbering) GPPCPAPELLGGPSVFLFPPKPKDTLMISRTPEVTCVVVDVSHEDPEVKFNWYVDGVEVHNAKTKPREEQYNSTYRVVSVLTVLHQDWLDGKEYKCKVSNKALPVPIEKTISKAKGQPREPQVYTLPPSRDELTKNQVSLTCLVKGFYPSDIAVEWESNGQPENNYKTTPPVLDSDGSFFLYSKLTVDKSRWQQGNVFSCSVMHEALHYHYTQKSLSLSPGK
2 | 15.9 fold | 5 fold | 5 fold | 15.9 fold | C5A_39 (other, EU numbering) CPPCPAPELLGGPSVFLFPPKPKDTLMISRTPEVTCVVVDVSHEDPEVKFNWYVDGVEVHNAKTEPREEQYNSTYRVVSVLTVLHQDWLDGKEYKCKVSNKALPAPIEKTISKAKGRPREPQVYTLPPSRDELTKNQVSLTCLVKGFYPSDIAVEWVSNGQPENNYKTTPPVLDSDGSFFLYSKLTVDKSRWQQGNVFSCSVMHEALHYHYTQKSLSLSPGK
3 |  | 7.5 fold |  | 24 fold | T5A_74C (other, EU numbering) CPLCPAPELLGGPSVFLFPPKPKDTLMISRTPEVTCVVVDVSHEDPEVKFNWYVDGVEVHNAKTKPREEQYNSTYRVVSVLTVLHQDWLDGKEYKCKVSNKALPVPIEKTISKAKGQPREPQVYTLPPSRDELTKDQVSLTCLVKGFYPSDIVVEWESNGQPENNYKTTPPVLDSDGSFFLYSKLTVDKSRWQQGNVFSCSVMHEALHYHYTQKSLSLSPGK
4 | 14.9 fold | 4.6 fold | 4.6 fold | 14.9 fold | C6A_12 (other, EU numbering) CPPCTAPELLGGPSVFLFPPKPKDTLMISRTPEVTCVVVDVSHEDPEVKFNWYVDGVEVHNAKTKPREEQYNSTYRVVSVLTVLHQDWLDGKEYKCKVSNKALPAPIEKTISKAKGQPREPQVYTLPPSRDELTKNEVSLTCLVKGFYPSDIAVEWESNGQPENNYKTTPPVLDSDGSFFLYSKLTVDKSRWQQGNVFSCSVMHEALHYHYTQKSLSLSPGK
5 | 14.4 fold | 4.5 fold | 4.5 fold | 14.4 fold | C6A_48 (other, EU numbering) CPPCTAPELLGGPSVFLFPPKPKDTLMISRTPEVTCVVEDVSHEDPEVKFNWYVDGVEVHNAKTKPREEQYNSTYRVVSVLTVLHQDWLNGKEYKCKVSNKALPAPIEKTISKAKGQPREPQVYTLPPSRDELTKNQVSLTCLVKGFYPSDIVVEWESNGQPENNYKTTPPVLDSDGSFFLYSKLTVDKSRWQQGNVFSCSVMHEALHSHYTQKSLSLSPGK
6 | 14.7 fold | 4.6 fold | 4.6 fold | 14.7 fold | T4A_42 (other, EU numbering) GPPCPAPELLGGPSVFLFPPKPKDTLMISRTPEVTCVVVDVSHEDPEVKFNWYVDGVEVHNAKTKPREEQYNSTYRVVSVLTVLHQDWLDGKEYKCKVSNKALPAPIEKTISKAKGQPREPQVYTLPPSRDELTKNRVSLTCLVKGFYPSDIAVEWESNGQPENNYKTTPPVLDSDGSFFLYSKLTVDKSRWQQGNVFSCSVMHEALHYHYTQKSLSLSPGK
7 | 13.5 fold | 4.2 fold | 4.2 fold | 13.5 fold | C5A_65 (other, EU numbering) CPPCTAPELLGGPSVFLFPPKPKDTLMISRTPEVTCVVVDVSHEDPEVKFNWYVDGVEVHNAKTKPREEQYNSTYRVVSVLTVLHQDWLDGKEYKCKVSNKALPVPIEKTISKAKGQPREPQVYTLPPSRDELTKNQVSLTCLVKGFYPSDIAVEWESNGKPENNYKTTPPVLDSDGSFFLYSKLTVDKSRWQQGNVFSCSVMHEALHYHYTQKSLSLSPGK
8 |  | 16.8 fold |  | 53.8 fold | T5A_74F (other, EU numbering) CPRCSAPELLGGPSVFLFPPKPKDTLMISRTPEVTCVVVDVSHEDPEVKFNWYVDGVEVHNAKTKPREEQYNSTYRVVSVLTVLHQDWLDGKEYKCKVSNKALPVPIEKTISKAKGQPREPQVYTLPPSRDELTKDQVSLTCLVKGFYPSDIVVEWESNGQPENNYKTTPPVLDSDGSFFLYSKLTVDKSRWQQGNVFSCSVMHEALHYHYTQKSLSLSPGK
9 |  | 26 fold |  | 83.1 fold | T5A_74D (other, EU numbering) CPRCPAPELLGGPSVFLFPPKPKDTLMISRTPEVTCVVVDVSHEDPEVKFNWYVDGVEVHNAKTKPREEQYNSTYRVVSVLTVLHQDWLDGKEYKCKVSNKALPVPIEKTISKAKGQPREPQVYTLPPSRDELTKDQVSLTCLVKGFYPSDIVVEWESNGQPENNYKTTPPVLDSDGSFFLYSKLTVDKSRWQQGNVFSCSVMHEALHYHYTQKSLSLSPGK
10 | 12.8 fold | 4 fold | 4 fold | 12.8 fold | T4A_37 (other, EU numbering) CPPCSAPELLGGPSVFLFPPKPKDTLMISRTPEVTCVVEDVSHEDPEVKFNWYVDGVEVHNAKTKPREEQYNSTYRVVSVLTVLHQDWLNGKEYKCKVSNKALPAPIEKTISKAKGQPREPQVYTLSPSRDELTKNQVSLTCLVKGFYPSDIVVEWESNGQPENNYKTTPPVLDSDGSFFLYSKLTVDKSRWQQGNVFSCSVMHEALHSHYTQKSLSLSPGK
11 | 23.7 fold | 7.4 fold | 7.4 fold | 23.7 fold | C8A_15 (other, EU numbering) CPPCPAPELLGGPSVFLFPPKPKDTLMISRTPEVTCVVVDVSHEDPEVKFNWYVDGVEVHNAKTKPREEQYNSTYRVVSVLTVLHQDWLDGKEYKCKVSNKVLPVPIEKTISKAKGQPREPQVYTLPPSRDELTKNQVSLTCLVKGFYPSDIAVEWESNGQPENNYKTTPPMLDSDGSFFLYSKLTVDKSRWQQGNVFSCSVMHEALHYHYTQKSLSLSPGK
12 | 14.7 fold | 4.6 fold | 4.6 fold | 14.7 fold | T5A_25 (other, EU numbering) GPPCPAPELLGGPSVFLFPPKPKDTLMISRTPEVTCVVEDVSHEDPEVKFNWYVDGVEVHNAKTKPREEQYNSTYRVVSVLTVLHQDWLNGKEYKCKVSNKALPAPIEKTISKAKGQPREPRVYTLPPSRDELTKNQVSLTCLVRGFYPSDIVVEWESNGQPENNYKTTPPVLDSDGSFFLYSKLTVDKSRWQQGNVFSCSVMHEALHSHYTQKSLSLSPGK
13 | 15.2 fold | 4.8 fold | 4.8 fold | 15.2 fold | C5A_09 (other, EU numbering) CPPCPAPELLGGPSVLLFPPKPKDTLMISRTPEVTCVVEDVSHEDPEVKFNWYVDGVEVHNAKTKPREEQYNSTYRVVSVLPVLHQDWLNGKEYKCKVSNKALPAPIEKTISKAKGQPREPQVYTLPPSRDELTKNQVSLTCLVKGFYPSDIVVEWESNGQPENNYKTTPPVLDSDGSFFLYSKLTVDKSRWQQGNVFSCSVMHEALHSHYTQKSLSLSPGK
14 | 17.9 fold | 5.6 fold | 5.6 fold | 17.9 fold | T5A_55 (other, EU numbering) CPPCLAPELLGGPSVLLLPPKPKDTLMISRTPEVTCVVEDVSHEDPEVKFNWYVDGVEVHNAKTKPREEQYNSTYRVVSVLPVLHQDWLNGKEYKCKVSNKALPAPIEKTISKAKGQPREPQVYTLPPSRDELTKNQVSLTCLVKGFYPSDIVVEWESNGQPENNYKTTPPVLDSDGSFFLYSKLTVDKSRWQQGNVFSCSVMHEALHNHYTQKSLSLSPGK
15 | 15.8 fold | 4.9 fold | 4.9 fold | 15.8 fold | T5A_57 (other, EU numbering) CPPCPAPELLGGPSVLLFPPKPKDTLMISRTPEVTCVVVDVSHEDPEVKFNWYVDGVEVHNAKTKPREEQYNSTYRVVSVLTVLHQDWLDGKEYKCKVSNKALPVPIEKTISKAKGQPREPQVYTLPPSRDELTKNQVSLTCLVKGFYPSDIAVEWESNGQPENNYRTTPPVLDSDGSFFLYSKLTVDKSRWQQGNVFSCSVMHEALHYHYTQKSLSLSPGK
16 | 23.8 fold | 7.4 fold | 7.4 fold | 23.8 fold | C6A_85 (other, EU numbering) CPPCPAPELLGGPSVFLFPPKPKDTLMISRTPEVTCVVVDVSHEDPEVKFNWYVDGVEVHNAKTKPREEQYNSTYRVVSALTVLHQDWLDGKEYKCKVSNKALPVPIEKTISKAKGQPREPQVYTLPPSRDELTKNQVSLTCLVKGFYPSDIAVEWESNGQPEKNYKTTPPVLDSDGSFFLYSKLTVDKSRWQQGNVFSCSVMHEALHYHYTQKSLSLSPGK
17 | 14.3 fold | 4.5 fold | 4.5 fold | 14.3 fold | T5A_45 (other, EU numbering) CPPCPTPELLGGPSVLLFPPKPKDTLMISRTPEVTCVVEDVSHEDPEVKFNWYVDGVEVHNAKTKPREEQYNSTYRVVSVLTVLHQDWLNGKEYKCKVSNKALPAPIEKTISKAKGQPREPQVYTLPPSRDELTKNQVSLTCLVKGFYPSDITVEWESNGQPENNYKTTPPMLDSDGSFFLYSKLTVDKSRWQQGNVFSCSVMHEALHSHYTQKSLSLSPGK
18 | 14.5 fold | 4.5 fold | 4.5 fold | 14.5 fold | T4A_48 (other, EU numbering) CPPCPAPELLGGPSVFLFPPKPKDTLMISRTPEVTCVVVDVSHEDPEVKFNWYVDGVEVHNAKTKPREEQYNSTYRVVSVLTILHQDWLDGKEYKCKVSNKALPVPIEKTISKAKGQPREPQVYTLPPSRDELTKNQVSLTCLVKGFYPSDIAVEWVSNGQPENNYKTTPPVLDSDGSFFLYSKLTVDKSRWQQGNVFSCSVMHEALHYHYTQKSLSLSPGK
